T1: 人TIGIT (膜表达人TIGIT稳转细胞株DG44-TIGIT) (human, UniProt Q495A1 22-244)
T1 construct: whole, on cells; also called 细胞表面的TIGIT蛋白; huTIGIT
T1 sequence (looked up): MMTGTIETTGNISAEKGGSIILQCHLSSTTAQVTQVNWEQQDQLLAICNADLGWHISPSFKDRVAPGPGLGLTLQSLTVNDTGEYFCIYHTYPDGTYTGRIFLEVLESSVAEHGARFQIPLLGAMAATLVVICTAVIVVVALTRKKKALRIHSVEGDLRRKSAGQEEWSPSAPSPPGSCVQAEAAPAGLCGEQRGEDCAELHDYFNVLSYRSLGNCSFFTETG

T2: rhTIGIT-Avi-His (human, UniProt Q495A1 22-130)
T2 construct: range 22-130; Expressed in Expi 293 cells, Ni-NTA purified; also called rhTIGIT-Avi-His抗原; not shown: C-terminal Avi tag and His tag from vector pCD-Avi-His
T2 sequence (looked up): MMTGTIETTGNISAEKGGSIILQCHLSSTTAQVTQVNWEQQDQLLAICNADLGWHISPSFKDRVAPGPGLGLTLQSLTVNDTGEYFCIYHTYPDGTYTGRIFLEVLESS

T3: rhTIGIT-Avi-His-bio (human, UniProt Q495A1 22-130, biotin linked to the Avi tag by BirA)
T3 construct: range 22-130; Biotinylated form of rhTIGIT-Avi-His, captured on SA chip for SPR; also called 生物素标记的抗原rhTIGIT-Avi-His-bio; not shown: C-terminal Avi tag (biotinylated) and His tag from vector pCD-Avi-His
T3 sequence (looked up): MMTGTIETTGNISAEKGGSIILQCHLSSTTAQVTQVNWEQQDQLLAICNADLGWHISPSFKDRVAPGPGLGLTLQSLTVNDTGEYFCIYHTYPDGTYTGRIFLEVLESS


Columns and labels:
[1] = target: T1, 人TIGIT (膜表达人TIGIT稳转细胞株DG44-TIGIT); experiment: FACS binding to DG44-TIGIT cells
rhTIGIT-Avi-His [2] = target: T2, rhTIGIT-Avi-His; experiment: ELISA, rhTIGIT-Avi-His coated at 0.5 ug/mL, antibody titrated
[3] = target: T1, 人TIGIT (膜表达人TIGIT稳转细胞株DG44-TIGIT); experiment: FACS blocking on DG44-TIGIT cells, competitor rhCD155-cFc-647 (1 ug/ml)
rhTIGIT-Avi-His-bio [4] = target: T3, rhTIGIT-Avi-His-bio; experiment: SPR (Biacore T200), rhTIGIT-Avi-His-bio captured on SA chip, antibody as analyte
rhTIGIT-Avi-His [5] = target: T2, rhTIGIT-Avi-His; experiment: ELISA on coated rhTIGIT-Avi-His
rhTIGIT-Avi-His-bio [6] = target: T3, rhTIGIT-Avi-His-bio; experiment: SPR, KD of D1Y1A against KD of 3TB3

EC50 [1] [µg/mL] | EC50 (rhTIGIT-Avi-His [2]) [µg/mL] | IC50 [3] [µg/mL] | Kd (rhTIGIT-Avi-His-bio [4]) [nM] | fold improvement against 3TB3 (ELISA) (rhTIGIT-Avi-His [5]) [fold] | fold improvement of affinity against 3TB3 (rhTIGIT-Avi-His-bio [6]) [fold] | Binder
0.0872 | 0.754 | 0.435 | – | – | – | 5TB10 (antibody, V domains shown, also called 全人源抗人TIGIT单抗5TB10) VH: DVQLQESGPGLVKPSETLSLTCTVSGDSVSDAGVGWNWIRQPPGKGLEWIGTIVPRRGITTYNPSLKSRVTISVDTSKNQFSLKLSSVTAADTSVYYCARVTTAGFDYWGQGTLVTVSS VL: DIVLTQSPATLSLSPGERATLSCRASQDVKILLNWYQQKPGQAPRLLIYWTSDRATGVPTRFSGSGSGTDFTLTISSLEPEDFAVYYCQQHLDRLPYTFGQGTKLEIKR
0.096 | 0.28 | 0.563 | – | – | – | TBB8 (antibody, V domains shown, also called 全人源抗人TIGIT单抗TBB8) VH: DVQLQESGPGLVKPSETLSLTCTVSGYSISTGYAWSWIRQPPGKGLEWIGSISAFGGNTYYNPSLKSRVTISVDTSKNQFSLKLSSVTAADTSVYYCARTARWIAFDYWGQGTLVTVSS VL: DIVLTQSPATLSLSPGERATLSCRASQDIGVSLNWYQQKPGQAPRLLIYWTSFRATGVPTRFSGSGSGTDFTLTISSLEPEDFAVYYCQQANGVPLFTFGQGTKLEIKR
0.0585 | 0.293 | 0.308 | – | – | – | TDC8 (antibody, V domains shown, also called 全人源抗人TIGIT单抗TDC8) VH: DVQLQESGPGLVKPSETLSLTCTVSGGSISSKGFTWSWIRQPPGKGLEWIGQISPLDSSTSYNPSLKSRVTISVDTSKNQFSLKLSSVTAADTSVYYCARGIWTYLYGFDYWGQGTLVTVSS VL: DIVLTQSPATLSLSPGERATLSCRASQSIHAGYLAWYQQKPGQAPRLLIYWTNLRATGVPTRFSGSGSGTDFTLTISSLEPEDFAVYYCLQLMRYPPTFGQGTKLEIKR
0.0589 | 0.0307 | 0.212 | 1.13 | – | – | 3TB3 (antibody, V domains shown, Parent of D1Y1A; also called 全人源抗人TIGIT单抗3TB3; 野生型3TB3) VH: DVQLQESGPGLVKPSETLSLTCTVSGGSISGGYSWSWIRQPPGKGLEWIGSIVPHRSATSYNPSLKSRVTISVDTSKNQFSLKLSSVTAADTSVYYCARSYGGNRLDYWGQGTLVTVSS VL: DIVLTQSPATLSLSPGERATLSCRASQGVGIRLSWYQQKPGQAPRLLIYYTAYRATGVPTRFSGSGSGTDFTLTISSLEPEDFAVYYCLQTFGDPYTFGQGTKLEIKR
– | – | – | 0.266 | ~3 | ~4 | D1Y1A (antibody, V domains shown) VH: DVQLQESGPGLVKPSETLSLTCTVSGGSISYWSWIRQPPGKGLEWIGSIATSYNPSLKSRTSVDTSKNQFSLKLSSVTAADTAVYYCARSYGGNRLDYWGQGTLVTVSS VL: DIVLTQSPATLSLSPGERATLSCRASQGVRLSWYQQKPGQAPRLLIYYYRATGVPARFSGSGSGTDFTLTISSLEPEDFAVYYCLQFPTFGQGTKLEIK
